Reference: paper PMC4960544, “Production of full-length soluble Plasmodium falciparum RH5 protein vaccine using a Drosophila melanogaster Schneider 2 stable cell line system” (Scientific Reports, 2016)
Changes are numbered by the printed parent chain.

Legend:
Experiment in all cases: SPR; basigin immobilised on a CM5 chip by amine coupling (850 RU); PfRH5 variant injected at 8-0.0625 uM, 120 s at 30 uL/min, 300 s dissociation; 20 C; 10 mM HEPES pH 7.4, 150 mM NaCl, 3 mM EDTA, 0.005% Tween-20, 2 mg/mL dextran, 1 mg/mL salmon sperm DNA; blank surface subtracted; global 1:1 interaction model
Details in all cases: both partners purified
[1] = biological target: T1, PfRH5 protein variant version 3.0 (3D7 sequence, four putative N-linked glycosylation sites mutated Asn to … (Plasmodium falciparum (3D7 clone), UniProt Q8IFM5 26-526, N38Q | N214Q | Asn to Gln at N284 | Asn to Gln at N297))
T1 construct: the four putative N-linked glycosylation sites (N38, N214, N284, N297) mutated Asn to Gln; The construct has an N-terminal BiP insect signal peptide (…); No cleavage site for the His6 tag is described; also called PfRH5 v3.0; v3.0
T1 sequence: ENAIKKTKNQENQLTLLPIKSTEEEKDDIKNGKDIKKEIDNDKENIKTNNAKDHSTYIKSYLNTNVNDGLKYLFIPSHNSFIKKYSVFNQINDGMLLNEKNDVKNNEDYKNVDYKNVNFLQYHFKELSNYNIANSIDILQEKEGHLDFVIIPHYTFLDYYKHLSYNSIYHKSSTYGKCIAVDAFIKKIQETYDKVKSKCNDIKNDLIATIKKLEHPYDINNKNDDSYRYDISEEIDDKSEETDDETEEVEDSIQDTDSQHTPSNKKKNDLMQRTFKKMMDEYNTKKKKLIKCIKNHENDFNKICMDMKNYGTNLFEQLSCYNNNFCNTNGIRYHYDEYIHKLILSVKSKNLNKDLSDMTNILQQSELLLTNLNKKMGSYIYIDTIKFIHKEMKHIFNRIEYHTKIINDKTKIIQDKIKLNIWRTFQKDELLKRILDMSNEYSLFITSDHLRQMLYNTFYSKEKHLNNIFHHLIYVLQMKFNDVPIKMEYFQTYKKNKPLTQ

[2] = biological target: T2, PfRH5 protein variant version 2.0 (3D7 sequence, four N-linked glycosylation sequons mutated Thr to Ala) (Plasmodium falciparum (3D7 clone), UniProt Q8IFM5 26-526, Thr to Ala in the sequon starting at N38 (position 40 worked out) | Thr to Ala …)
T2 construct: The construct has an N-terminal BiP insect signal peptide (…); No cleavage site for the His6 tag is described; also called PfRH5 v2.0; v2.0
T2 sequence: T1 sequence with Q13N, T15A, Q189N, T191A, Q259N, T261A, Q272N, T274A

[3] = biological target: T3, PfRH5 protein variant version 5.0 (native 3D7 PfRH5 sequence) (Plasmodium falciparum (3D7 clone), UniProt Q8IFM5 26-526, N-linked glycan(s): one or both of the N-X-T sequons starting at N38 and N214 are glycosylated)
T3 construct: The construct has an N-terminal BiP insect signal peptide (…); No cleavage site for the His6 tag is described; also called PfRH5 v5.0; v5.0; source: without the Con A step
T3 sequence: T1 sequence with Q13N, Q189N, Q259N, Q272N

Measured: binding result

B1: recombinant basigin, immunoglobulin domains 1 and 2 of the short isoform (22-205) (domain or fragment)
chain: GAAGTVFTTVEDLGSKILLTCSLNDSATEVTGHRWLKGGVVLKEDALPGQKTEFKVDSDDQWGEYSCVFLPEPMGTANIQLHGPPRVKAVKSSEHINEGETAMLVCKSESVPPVTDWAWYKITDSEDKALMNGSESRFFVSSSQGRSELHIENLNMEADPGQYRCNGTSSKGSDQAIITLRVRSH
notes: additional glycine left at the N-terminus from the TEV cleavage site; basigin (CD147), immunoglobulin domains 1 and 2 of the short isoform, residues 22-205; numbers count on: the short isoform; basigin is spoken of as the red blood cell receptor of the human malaria parasite; also called CD147; PfRH5 receptor; not shown: His6, N-terminal, cleaved
binds: all assays above
